# B1: CYP505E3: self-sufficient cytochrome P450 monooxygenase from Aspergillus terreus, SEQ ID No 1 (protein, listed as Aspergillus terreus)
# chain: MIKETEQIPGPRPLPVVGNLFDMDLEHGLECLIRLADDFGPLFQITINGEKQIFATSQALVDELCDESRFHKAVMGGLEKLRMLASDGLFTAYHGERGWGIAHRILVPAFGPLRIRNMFEEMNDVAQQLCLKWARQGSSTSINITDDFTRLTLDTIALCTMNFRLNSFYNNETMHPFVKSMLYVLRESDIQSMLPGIANCIRVKARSRMSKHIQLMRNMARGIIQERRDQAEPVDDLLNTLLNGRDPVTGEGMSDDLIINNVITFLIAGHETTSGLLSFTFYYLLQNPHILERAQNEVDEVTGGERITVQHLGRLTYIDAILKESLRLMPTAPAFTVTPKKPEVLGGAWAIDAGQAVNVLLPVCLRDRSVFGPDADEFRPERMLEENFSKLPPNSWKPFGNGERSCIGRAFAWQEAQLVVAMVLQTFDLVPDDPSYKLRIKETLTIKPDGFRVRATLRRGQSATGLSQGSMSASGATSSVASPGPPAATGAQSNPAGGQRISFFYGSNSGTCKALAHRLASSLMGRGFTEQKLAALDTVVGNLPTDQPVIIVTTSYDGRPTDDAEEFVRWLESKRPVLQGVSYAVFGCGHHDWAKTFYRIPILIDDLMHKAGATRLTALGTANAAVSDLFSDLELWEETNLLPALREAFPPSNSSDVESSEPHQLQICVSKPRRVDMHRGLVEAKVTAVRTLTSPDSPEKRHVEFHVQGDTTWRPGDHVNILPVNPLSTVSRVLAYFQLAPDHSITVNSFNTQGLPSATPVSATELFSSFVELSQPATRKNLKALAMAAESKTDEQELIRLHDSYDALVRDKRVSVLDILERFPSISLPIGIFISMLPPLRLRTYSLSMAPSFKPSHGSLTFSVINEPAWSGNGQYLGVGSNYLASLTPGSLLYLSPRPAKDAFHLPADQFNTPIIMICAGSGLAPFMGFIQERMTWLKQGRPLAKGLLFFGCRGPHLDDLYYEELSEFEDAGVVEVHRAYSRAPDDVRAKGCRHVQHRLVTEAEAVRDHWGRNAIVYVCGSSNMARGVQTVLEEILGTLPPERYVAEIF
# Key:
# [1] = type: cell-based, P. pastoris
# Procedure: Precultures of P. pastoris transformants were prepared in buffered complex glycerol media (BMGY). BMGY contained: 10 g/l yeast extract, 20 g/l peptone, 3.4 g/l yeast nitrogen base, 10 g/l ammonium sulfate, 100 mM potassium phosphate (pH 6), 0.4 mg/l biotin and 1% (v/v) glycerol. Erlenmeyer flasks (500 ml) containing 50 ml BMGY media were inoculated with single colonies of 24 h old YPD-agar cultures of P. pastoris KM71 mut^s3/CYP505E3 and incubated at 30° C. and 225 rpm for 24 h. The cultures were harvested using pre-weighed centrifuge tubes at 3000 g for 5 min and stored on ice until further use.
# The main cultures for expression were prepared in buffered complex methanol media (BMMY) containing 10 g/l yeast extract, 20 g/l peptone, 3.4 g/l yeast nitrogen base, 10 g/l ammonium sulfate, 100 mM potassium phosphate (pH 6), 0.4 mg/l biotin and 0.5 or 1% (v/v) methanol. Harvested cells from precultures were resuspended in BMMY media to final concentration of 1 g WC per 40 ml (appx. 25 g/l). The resuspended cultures (100 ml) were transferred to 500 ml Erlenmeyer flasks and incubated at 25° C. and 225 rpm for 24 h. The cultures were then harvested at 3000 g for 5 min using pre-weighed centrifuge tubes.
# Different transformants of Pichia pastoris KM71 harbouring the CYP505 genes for SEQ ID Nos 1 to 7 and 9 to 12 were grown and harvested as described above. The harvested cells were resuspended to give 1 g wet cell weight in 40 ml MOPS buffer (200 mM, 100 mM glucose, 100 mM glycerol, pH 8) and 1 ml aliquots of these cell suspensions were transferred to 40 ml amber vials. Dodecane, 1-dodecanol and 1-tetradecanol were added neat to these cell suspensions to give final concentrations of 200 mM in the case of the alcohols and 1 M in the case of dodecane while in the case of dodecanoic acid 20 μl of a 500 mM stock solution (in DMSO) was added to give a final concentration of 10 mM. Transformants harbouring the CYP505 genes for SEQ ID Nos 1 to 4 were tested for the biotransformation of 1-dodecanol, 1-tetradecanol, dodecanoic acid, tetradecanoic acid and dodecane, while those harbouring the CYP505 genes for SEQ ID Nos 5 to 7 and 9 to 12 were only tested for the biotransformation of 1-dodecanol and dodecanoic acid. The biotransformations were incubated at 25° C. and 225 rpm for 24 h. Extractions were performed using ethyl acetate (500 μl×2). The extracts were analyzed using GC/MS.
# [2] = Biotransformation of hexadecanoic acid using CFE of E. coli, Tris-HCl buffer; type: biochemical
# Procedure: (§1) Expression of genes in E. coli was performed by using ZYP-5052 auto-induction medium (Table 1) with in the case of the CYP 1 mM 5-aminolevulinic acid and 0.05 mM FeCl3 added. The CYP505E3 culture was cultivated using baffled flasks and incubated at 20° C. and 180 rpm for 24 h, while the GDH, and HLADH expressing cultures were all cultivated at 25° C. and 200 rpm for 24 h. Cultures were harvested through centrifugation (6 000×g, 10 min) and 1 g (wet weight) resuspended in 2 ml, 5 ml or 10 ml Tris-HCl, Phosphate or MOPS buffer, as indicated, (pH 8, 200 mM) containing 100 mM of glucose and glycerol. CFEs were obtained by a single passage of the suspended cells through a One Shot Cell Disrupter (Constant Systems) at 207 MPa. The soluble fraction was separated from unbroken cells by centrifugation (20 000×g, 20 min).
# The biotransformation reaction mixture (BRM) consisted of CYP and GDH CFE suspensions prepared from cells in Tris-HCl buffers (1 g wet weight in 2 ml buffer) mixed in a 1:1 ratio with 0.1 mM NADPH added. Dodecanoic acid, tetradecanoic acid, hexadecanoic acid, 1-tetradecanol and 1-hexadecanol (20 μl of a 255 mM stock solution in DMSO) were added to 40 ml amber glass vials containing 1 ml BRM to give final substrate concentrations of 5 mmol·LBRM^−1. These vials were placed on an orbital shaker at 20° C., 200 rpm, oscillation amplitude 26 mm. Vials were removed after 24 h for extraction. Biotransformations were stopped by adding 170 ul of 0.5M HCl, extracted with 2×500 μl EtOAc and subjected to GC-MS analysis. A sample of δ-dodecalactone in ethyl acetate (0.1 mM) was also methylated with TMSH and subjected to GC-MS analysis.
# [3] = type: biochemical
# Procedure: To convert 1,5-dodecanediol to δ-dodecalactone 170 μL of an ethyl acetate extract containing 150 mM dodecanol and 5.5 mM 1,5-dodecanediol was placed in a 40 mL vial and the ethyl acetate evaporated by incubating the vial at 100° C. for 5 min. After evaporation of the ethyl acetate the dodecanol/dodecanediol mixture was resuspended in 1 mL of an HLADH expressing culture of E. coli permeabilized with Triton X100 (1% v/v was added and the cell suspension incubated at 37° C. for 10 min). This reaction mixture containing 1 mM of 1,5-dodecanediol and 25 mM of dodecanol was incubated at 30° C. and 180 rpm for 24 h. It was then extracted with ethyl acetate (2×0.5 mL) containing 2 mM undecanol as internal standard and analysed on a VF5 column using a GC with FID detector for quantification and a GC-MS with a Chiraldex G-TA column (30 m×0.25 mm ID) to determine enantioselectivity. The ethyl acetate extract contained 0.2 mM 1,5-dodecanediol and 0.65 mM δ-dodecalactone (R:S ratio 84:16, ee 67%) while the δ-dodecalactone produced from dodecanoic acid in previous experiments using CYP505E3 was an almost racemic mixture (R:S ratio 55:45, ee 10%) (FIG. 12).
# [4] = whole cell biotransformations, E. coli; cited from earlier work
# [5] = Biotransformation of hexadecane using CFE of E. coli expressing CYP505E3; type: biochemical
# Procedure: as §1
# (§2) Biotransformations of dodecane, tetradecane and hexadecane were carried using only CYP505E3 containing CFE prepared from an E. coli cell suspension (1 g wet weight in 10 ml buffer) in MOPS buffer (200 mM, pH 8) containing glucose and glycerol (100 mM each) as well as 0.1 mM NADPH. Alkane substrates (250 μL) were added to 1 mL BRM in 40 ml amber glass vials. These vials were placed on an orbital shaker at 20° C., 200 rpm, oscillation amplitude 26 mm and incubated for 24 h.
# [6] = type: biochemical, E. coli
# Procedure: as §1, §2
molecule,measurement,setting,value
B1,products produced from tetradecanoic acid (GC-MS),[1],only 7-hydroxy tetradecanoic acid
same,"products identified from hexadecanoic acid (GC-MS, methylated samples)","[2]; 5 mmol/L substrate, Tris-HCl, 24 h",9-hydroxy hexadecanoic acid
same,ω-7 hydroxylase activity C16FA,"[2]; C16 fatty acid, GC-MS peak height",++ (++ 0.1 million < RA < 1 million)
same,δ-dodecalactone R:S ratio,[3],55:45
same,δ-dodecalactone ee,[3],10%
same,activity towards alkanes and alkylbenzens,[4],no detectable activity
same,ω-7 hydroxylase activity C16alk,"[5]; C16 alkane, GC-MS peak height",+ (+ − 0.01 million < RA < 0.1 million)
same,product from hexadecane (GC-MS),"[5]; MOPS buffer, 24 h",8-hexadecanol
same,product from dodecane (GC-MS),[6],5-dodecanol
same,product from tetradecane (GC-MS),[6],7-tetradecanol
